This note sets out measurements from the NTF2 design screens of Basanta et al. (2020).

This data set can be described thus: protease stability score; higher = more stable; yeast display proteolysis, trypsin and chymotrypsin.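 Also: relative to predicted unfolded state with 0 unfolded-like and 1 meaning tenfold more protease.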
In turn, “TEEDEHSRVAIEQTIRTLETGDEKEWERELDPHVRINIGEKHFHGRERAVELWLRLGVKHFRIKEVEHQGNKIIVHGSINVNGVKIEMYSIAEKIDGKWHLTHMHIP” registered a protease stability score of 1.53.

In turn, “SELEEWTERMAKQMLDDVETGDEDRLLKLADPHVRVEFIVDGKIEEVHGREELRKLMERLGIKHFEIKRVSIRVIDGRIHVHNDGHMIIDGKTIPVQLHIHAEKVNGRWRVTDLSIRVG” returned a protease stability score of 1.51.

“DEHREIARRHTEVWWKLLLTGDEHLLRELADPHVRLETEHEEVHGREEVVRFLTEEIMKVKNIRLELKRIEVQGDKIDVEGTRHIDGVTIRVILYIHKINGRWVVQQIQLD” yielded a protease stability score of 1.29.

As to “DEEKERMFEHWEDVLRDWYTGNEDNLRHLFDPHARTDVNGVELHGMDLISEVLRRHLEEIRIKSMHLRELRSVDGRIHEHGELRGRVNGVDVRREVRVHLTVVNGRMKEMRFENI”, the protease stability score turned out to be 0.394.

The sequence “TEEEEHALTLMKEWVHNHETGNEDHLSHLMDPNYRWVQGDWHLHGMEDFSRELNKTLDKMGMTEHLRLKDFKVQGNFVEVIGTQHLHINGRTIKIDSTLKLNVINGRIHEVRYTLH” showed a protease stability score of 0.77.

“TEEEELRRRHAKELLDIWRTGDEHLMSHLADPHVRSIIDGVTVIGRDEWMKYLRILREHLGVKHIEHKDFNIQGDKVDVHGTMHVNGREIEVRSHFYVIDGRVRSNEIRFH” showed a protease stability score of 0.256.

“SEDEHMFELARHILEETDRTGDWRELEKNVDPNARLRVDGQRQHGRDSVRLLIERADHIHHRRLETFTVVNGVIHFEMHVHVIINGVPYEVEVHMHALKVDGKWIIKKVEMD” had a protease stability score of 0.479.

“SEDIEELRKVFEDWVRILRTGDEKSHKELMDPTYRNDQGEFHYHGMEDLEKFTRRYDHVNLIFRDMRLVNGVARVDGEIQLHQGDFKIDTHVIIYMLKIDGQWRIRSIEIR” registered a protease stability score of 2.08.

Sequence “SEEEEIIESFMKELRESHKTGDPTAIDRLADPNTRLLVNGKQHHGWEHILRFLEDLGANHIELEFRDSHLIGDKMHIHGQLVMHINGQRVTIKTHMILSKINGRWYLEHIELR” returned a protease stability score of 1.81.

“SEEEEYAREFLERHLHSLKTGDWREEHKQADPEVRLHIGDKEFHGREIFVKIQREILEQADHLRIHIRRVHVQGDFLHIDGELRIRINGREHYIDRKVIVWKFNGRWHLHEVSIE” came in with a protease stability score of 1.39.

Consider “DEEERLWHEFLEEFLRYIITGNWKKIADLADPNVRYQQGEKTNIGREDFERHFEKTYNDLGVDHFEIDHVDIQGNKIEIHLWLRVNGQEHKIHIDVKVVNGRIKYVRIEYE”, for which the protease stability score stood at 1.5.

The sequence “DEERKEYEDALTLFIEYLLTGDFERLEHLADPTTRLIVNGQEFHGRELVMRQLLEIRFHDHKLHDYKVVNGVAILDTRDRGIINGQETIFKTHIVLQKIDGRWVLRRYEIR” came in with a protease stability score of 1.38.

“HDMEERSKHVHHIILRSLRTGDEDAYERLADPDTRLHVGDKNIHGRESIRNIWREILERIPNMRIELELEDSEIVGDYIYLKINLRMNFDGREVEHEIRIVSLKINGRWVEKSVHFR” showed a protease stability score of 0.591.

“DEEEEREKELRERWEHFLKTGDWKKIEELADPHVRLDVGDKELVGRELFVEFIRRLLEHLGFNVFRINHIDLQGEKINMDVEREIGDKSTRVELHILKIDGQWILKRVIIN” registered a protease stability score of 1.82.

“DEEEEIMRKIIEDLRHNTETGDEELMQDLMDPHARIDIDGQKLHGREYVRFLHDEFKGATWIWREVRLQGDKLDVHVEVRFDGRTLHVDIHYVIVNGRTKEIRVHWD” returned a protease stability score of 1.28.

The sequence “DETHKLLEDLTRLFWELTHTGDEEIVEELADPHVRSEINGKERHGREEHVKAWREWRIERMTLRSVSVINGQMSIDGEIVLKIGDKRIETRIEIRIHIVDGVMKSVKIHLE” returned a protease stability score of 0.937.

In turn, “DEDEELVKEWFEILMHKVITGDEDTLRNLADPNVRVDINGRDHHGREKFIEVYRRLWEDFGIDYIDSDVEEMKVYDGQAEVTIRLEIRFNGRTLELTTHYDVEKVDGKWRLRRHEVR” had a protease stability score of 1.29.

As to “DHEERIISEQLKIELESTATGDESTLEELVDPTTKININGKHLHGRESILKLLVEYARRADHIEIRPEHVEVYGNKLIIHGEIRIEVGDKRHSTKVLLILRKVNGRWRLTEEKWD”, the protease stability score was 1.65.

“SELEEITRRVWERLVRDLRTGDEKSLQEMLDPNVRSDFNGVELIGRELATKLIAELRIHDVKVEDVKFQGDKMTLDTKIDGEVNGKRHEFKHTLIFVKVDGQWMIETEEFH” showed a protease stability score of 1.26.

For the sequence “DENEHIAREFLRQFLRQVETGDEYRLMELMDPNARINFDGKDLHGRDEWIRKIREIRFDQTHIHDVRIQGNKMEVDTRWDGEINGVRTIFDVHMDIRKVDGKWIIKVINIH”, the protease stability score was 1.66.

Take “DEEEEQARDLTKLLEKLWATGDEHTLLRLLDPNARNIVGDKEHHGREILLKFWRHLGVSRVESKIEDVKVFDGRVYIKGRVRFDGVELETEIESEKVNGQWHIRIIRMR”: the protease stability score came to 1.79.

In the case of “DEREDEVRLATEHVERILQTGDEELFRHFVDPRVRMDYNGKDVHGREVILEWIVKIKNLTVRIDDVEVQGDKMLIRSHWTIGDKQHHLRIIATKINGRWESTSVHIH”, the protease stability score was 1.02.

In turn, “DELTDSREHALNLYIHKLETGDWNLHERFLDPNVRVDYDGVDLHGREIYRQWETERLEIAGIKHLELKRKSVQGEKIRIDGIEKFDGKEVKTHVIILKVNGKWILETVIFK” came in with a protease stability score of 0.171.

“TTEHAATLFLTSMITGDWEWISRLFDPHVRLVFNGVTNVGRELAIHKLVETVLKLGVKHTHIDEMRLYGDKVEVHVTLRVGDKTTNIDIEVDWVDGQVKEVHIDTRTEDTSKILKHVYK”: the protease stability score came to 0.109.

“DEDHKFAVEILRRLMEIWFTGNEEELKHLADPDYRLRVRINGKEITRHGMEQSREQIKRWIDRIDHYEIRIRHLEWQGDKSHSHTELHMRFDGVIKKFETRIIVIVIDGKVSEIIIEIN”: the protease stability score stood at 1.61.

Consider “SEDQEIAVKLLHEMMEALRTGDEDYLRRLFDPNMRFNQGDKTHHGMDWVHSFLRRYDYFEVRHVRVHHVEVQGEKIIIDGRLEGSIRVDGVLQENEISVIFIIIKINGKWFVQTIRFN”, for which the protease stability score is 1.21.

The sequence “DEETKIIEHILEHWLRLIQTGDFHELFRLVDPNVRIDINGVEYHGREEMIKFWKEEVDKLGVDRIHTDLNRNEYQGDKIILHQEVRINGRHIDIHVHAEKVDGVWILRILKRD” had a protease stability score of 1.57.

The sequence “KEDSEIAEDIIRLLNHASSTGDEETFTHLADPNVRIKIGDKESHGREEWSRTLTELRVEFKDMKIRDVDIQGEYVFVEGELRVEITVNGRTIEIHYESHFIMEKVNGRWHVHSVMML” gave a protease stability score of 0.222.

With “DEHEDHVLEVFRIILEILLTGDFREWRRLADPTVRLEFNGREYHGRDEILEFLTQHIRHWRLKHIHIDNYEVYDGRIEVHGHIRFTFNGKEHIIETRIIINVFDGRLHDEQYITH”, the protease stability score worked out at 1.53.

“DHMEEDVRVAVKIWEETYRTGDEQEINDLVDPNVRVNINGQDYHGRHWLRQIIIEDRRRADHIEIRIDHIEVIGDKVILRGLVIMIQGDKRFDIRMRIFDRKVNGRWHLHNLEQE” had a protease stability score of 2.08.

Sequence “DEEEEIAHEMVRELVKVLETGDEEIWERLMDPNDRIHIGDKNLVGMDETRKWINEFMERIDHIRVRVRSIHPVDGRANLDTEITTHYNGRTTTYKVLLIVVKVNGRWVLESMHIK” gave a protease stability score of 1.93.

Regarding “DEEEESNRHLAEKFEEHHRTGDWRMMSKMFDPHVRVERIFNGRTVIIHGWEKYVKTVKDEFERIKGARLIIDDMKVQGEKSRVEGTLKINGRTVEVDIHLDIVDGRLRHVRIEIE”, the protease stability score is 0.201.

The sequence “DEQEQHAFKFFEHHTEILKTGDWEEVRKNLDPHVRLHVNGVEMHGMEHATELALKEDTEIRSELRLEDVDVQGDKVRFDIRLIYHIGDKTIVHKIDLVMIKINGRWLVHSIHVE” returned a protease stability score of 0.36.

The sequence “SEQEERETRFMEKAWDLLRTGDEHLLERLADPNARLEIDGRKKHGRETIIEYFRHVKEHLGFKHIELHHMHLVDGVLHIDGIFRYGDKTHRTEIVYYVVNGRLERIEIIIL” displayed a protease stability score of 1.22.

As to “DEKTEIVSRIMIVFFHALLTGDWETLKKNADPHVKLEAEGRKSHGMEELVRWIHEEIKRIPGIRFELKRYDVQGDKVEIEGRVRINGVEFELIIESVIVDGKLKSIREEWR”, the protease stability score was 1.41.

As for “DEDEHMVKHAIELILKSIITGDEDLWKRLFDPDVKIEVGDKDVHGRELATEFMKLWRDHMRFTHHEITRVETYNGRAHIHGRDRVTIDGQEMTRESHLVMIKVDGRWFLHSVHIK”, the protease stability score was determined as 1.07.

In turn, “HEDEDLLEELARKYKHHLETGDEHIIRRLVDPHVRIEQGEKKLIGREEFLRILTELLRSWGVTRFEFRIEDFRLQGDKAHMRGSVEVGDFHHDVEIVSRKIDGRWVITHYHEI” showed a protease stability score of 0.118.

For “SEEDTMAKTLTKMEIELLRTGDEDLLWRLADPNVKLHINGRDLHGRETFEEWMKRFLEQVDVLRIEHREIRTAEGHLELDMHVDSYFDGVRFTTRLIVEVIKVDGRWFIRFREEQ”, the protease stability score turned out to be 1.21.

“DELHEERERASEVARRWVLTGNEEMLVQLADPEVRLHFNGVDFVGRETIHETLRRIHELWGVDRIEVRLKTVHIYDGVVDVHVDLHVGDKEIRDDIHLKKFNGRWEMTTRHVH” had a protease stability score of 0.348.

Sequence “TEEHEEARRAMKIIVDLLDTGDWKTISRYFDPNVRFEVGDKTYHGREEVLNRFIELGHSNIDVKLHHMELYGDKVVIDSRMNVDGRTHEIEWHSRKYNGRWRLHELHVR” yielded a protease stability score of 1.12.

Consider “SDEEEDIERAIRLMHEIHETGDESVWEHLADPHVKVDFNGQERHGREDMIKIWHYLGVKHVFFRDIRVQGEFLVVHSEDNVDGKTFQIRYLVFKINGRWFLEEVEFD”, for which the protease stability score came to 0.942.

Regarding “TESEEDAEWAFRILEHVLETGDEHLLRVLLDPHVRVHIDGRNIHGRENVIRELTEIRIHVEMHLEHVDLQGDKMHIDLRVHIIIIFNGQEKRRTHRMEMIVFKYDGKWFINEIHFH”, the protease stability score turned out to be 1.37.

For the sequence “HEDDRIVQEHWKRLSEAWLTGDEERAKKNADPNTREVINGKELHGREEVTRLYREIRRSIEHVEIRDSRIQGDKLLIDVNMVISVIIGDKEFRIEVRVNVIMIKFDGVWHLETVHFH”, the protease stability score was determined as 0.187.

As to “SEIEEQVEEAYRLILEMLHTGDEHTMHELIDPHVRHRIDGQTYHGREFLIKWLVKLREDWGVEKISVKLKFITIIGDFALVVVDIHINGVKLKNHTLATKVNGRWRDHTVNIEHI”, the protease stability score is 0.637.

In turn, “DEEHRSSHHAVEVQFRVLHTGDFHDLRRQLDPDVKFHIDGVNDHGREVFEERVRELGIKHLLIEDHHVEIQGEWAHLRMKGLMEINGKEIKLHIRYLLLKVNGRWSAHTVSIHLE” registered a protease stability score of 1.36.

The sequence “SDFEEITRKITEIITRAFFTGDWRQIERLMDPEVRNELTIGDKRIERHGRENLVHLLEEAGIDVIRIRSVEIRFFNGRLEVRIDHEVTINGVHFKTVIVVIMIKIDGRWVVHSWSFHFE” showed a protease stability score of 0.959.

Take “DEHEHMTELAHRIIMKTWETGDEEEQHRMFDPHARLIIDGKNIHGREQIQREMKRFSEEIRLRDATIHRVEIQGNKVISDWRLRIDVDGREVHFESHVIIRKVNGRWRIDHLILN”: the protease stability score was found to be 1.21.
